The source of these data is PMC5897774, “Mitotic spindle association of TACC3 requires Aurora‐A‐dependent stabilization of a cryptic α‐helix” (The EMBO Journal, 2018).

Non-standard residues stand in square brackets, D forms with d. No end group written: not given here. pS = N[C@@H](COP(=O)(O)O)C(=O)O; FAM = fluorescein label

Broadly, the Kd is the equilibrium constant for the complex coming apart. A low value points to a tighter complex.

The target in one test is T1, Aurora‐A R151A (Homo sapiens, UniProt O14965, C290A/C393A/R151A).
T1 construct: pET30TEV Aurora‐A 122–403 C290A, C393A were produced in a similar manner; made in house
T1 sequence (O14965 122-403 R151A/C290A/C393A): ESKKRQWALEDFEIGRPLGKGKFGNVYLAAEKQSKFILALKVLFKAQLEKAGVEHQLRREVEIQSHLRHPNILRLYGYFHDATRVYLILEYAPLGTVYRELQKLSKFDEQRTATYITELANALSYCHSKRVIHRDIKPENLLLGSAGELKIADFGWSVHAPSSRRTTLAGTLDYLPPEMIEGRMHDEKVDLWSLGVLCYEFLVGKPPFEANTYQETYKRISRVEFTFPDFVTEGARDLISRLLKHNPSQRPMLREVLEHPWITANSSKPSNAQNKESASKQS
The test is described as follows: FP binding assay, Aurora‐A R151A. Particulars: fluorescence polarization, Aurora‐A R151A relative to WT Aurora‐A. On the technique in general: Polarisation of emitted light reports the rotation of a fluorescent probe.

The target of the next test is T2, CHC 1–574 R481E (UniProt Q00610 1-574, R481E).
T2 construct: source: expressed and purified as the WT protein (modified pGEX vector; GST cleaved with TEV)
T2 sequence (looked up): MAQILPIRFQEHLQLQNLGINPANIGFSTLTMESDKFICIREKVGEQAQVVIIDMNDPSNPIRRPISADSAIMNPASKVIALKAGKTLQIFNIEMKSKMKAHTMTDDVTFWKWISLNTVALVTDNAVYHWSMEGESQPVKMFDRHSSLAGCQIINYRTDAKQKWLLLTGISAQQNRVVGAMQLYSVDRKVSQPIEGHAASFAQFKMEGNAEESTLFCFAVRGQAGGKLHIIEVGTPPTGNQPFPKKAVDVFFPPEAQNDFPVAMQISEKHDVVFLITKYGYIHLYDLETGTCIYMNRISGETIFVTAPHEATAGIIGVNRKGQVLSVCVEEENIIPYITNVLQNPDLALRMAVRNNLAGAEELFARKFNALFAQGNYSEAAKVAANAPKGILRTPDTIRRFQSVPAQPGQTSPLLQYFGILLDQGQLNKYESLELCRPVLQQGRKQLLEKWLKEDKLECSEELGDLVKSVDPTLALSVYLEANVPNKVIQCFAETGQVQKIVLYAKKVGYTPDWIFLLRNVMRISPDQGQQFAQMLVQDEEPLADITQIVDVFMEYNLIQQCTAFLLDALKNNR
The test is described as follows: fluorescence polarisation; CHC proteins serially diluted in 20 mM HEPES–NaOH pH 7.5, 200 mM NaCl, 5 mM DTT; 50 nM FAM‐labelled TACC3 peptide; 30 min at room temperature; read at 25°C. Particulars: both partners purified.

The next test concerns the target T3, CHC 1–574 L503A/Y504A (UniProt Q00610 1-574, L503A | Y504A).
T3 construct: source: expressed and purified as the WT protein (modified pGEX vector; GST cleaved with TEV)
T3 sequence (looked up): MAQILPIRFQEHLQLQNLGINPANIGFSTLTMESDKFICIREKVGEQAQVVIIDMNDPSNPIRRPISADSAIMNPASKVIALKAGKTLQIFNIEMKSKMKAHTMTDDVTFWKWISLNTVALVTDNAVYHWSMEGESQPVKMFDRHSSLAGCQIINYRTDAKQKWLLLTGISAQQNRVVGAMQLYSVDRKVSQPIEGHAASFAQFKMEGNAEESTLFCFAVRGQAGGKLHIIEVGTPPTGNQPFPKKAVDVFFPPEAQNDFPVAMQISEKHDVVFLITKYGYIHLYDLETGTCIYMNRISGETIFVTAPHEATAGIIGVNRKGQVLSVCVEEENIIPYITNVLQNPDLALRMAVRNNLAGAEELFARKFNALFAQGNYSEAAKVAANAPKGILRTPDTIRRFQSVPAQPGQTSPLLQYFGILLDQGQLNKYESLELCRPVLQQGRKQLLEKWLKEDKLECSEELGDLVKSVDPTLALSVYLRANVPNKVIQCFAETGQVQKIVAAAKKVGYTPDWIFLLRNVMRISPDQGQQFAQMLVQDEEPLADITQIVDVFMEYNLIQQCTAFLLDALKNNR
The description is as above. Particulars: both partners purified.

A further test addresses T4, CHC 1–574 L480D (UniProt Q00610 1-574, L480D).
T4 construct: source: expressed and purified as the WT protein (modified pGEX vector; GST cleaved with TEV)
T4 sequence (looked up): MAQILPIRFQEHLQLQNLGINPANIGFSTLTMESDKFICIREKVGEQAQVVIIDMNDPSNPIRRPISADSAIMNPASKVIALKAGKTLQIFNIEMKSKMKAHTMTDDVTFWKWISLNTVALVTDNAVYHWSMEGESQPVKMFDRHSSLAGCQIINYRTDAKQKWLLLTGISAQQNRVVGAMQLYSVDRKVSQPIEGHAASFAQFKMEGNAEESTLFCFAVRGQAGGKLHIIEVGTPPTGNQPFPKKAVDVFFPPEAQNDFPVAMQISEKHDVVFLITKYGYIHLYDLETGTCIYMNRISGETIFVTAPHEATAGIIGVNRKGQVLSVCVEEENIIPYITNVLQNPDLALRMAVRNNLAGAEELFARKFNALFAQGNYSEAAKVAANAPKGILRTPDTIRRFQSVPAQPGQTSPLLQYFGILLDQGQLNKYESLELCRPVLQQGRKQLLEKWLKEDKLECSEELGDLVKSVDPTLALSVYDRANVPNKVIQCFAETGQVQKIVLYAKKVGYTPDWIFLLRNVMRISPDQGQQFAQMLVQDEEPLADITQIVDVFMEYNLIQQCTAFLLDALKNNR
The description is as above. Particulars: both partners purified.

A further test concerns the target T5, CHC 1–574 L476D, L480D (UniProt Q00610 1-574, L476D | L480D).
T5 construct: source: expressed and purified as the WT protein (modified pGEX vector; GST cleaved with TEV)
T5 sequence (looked up): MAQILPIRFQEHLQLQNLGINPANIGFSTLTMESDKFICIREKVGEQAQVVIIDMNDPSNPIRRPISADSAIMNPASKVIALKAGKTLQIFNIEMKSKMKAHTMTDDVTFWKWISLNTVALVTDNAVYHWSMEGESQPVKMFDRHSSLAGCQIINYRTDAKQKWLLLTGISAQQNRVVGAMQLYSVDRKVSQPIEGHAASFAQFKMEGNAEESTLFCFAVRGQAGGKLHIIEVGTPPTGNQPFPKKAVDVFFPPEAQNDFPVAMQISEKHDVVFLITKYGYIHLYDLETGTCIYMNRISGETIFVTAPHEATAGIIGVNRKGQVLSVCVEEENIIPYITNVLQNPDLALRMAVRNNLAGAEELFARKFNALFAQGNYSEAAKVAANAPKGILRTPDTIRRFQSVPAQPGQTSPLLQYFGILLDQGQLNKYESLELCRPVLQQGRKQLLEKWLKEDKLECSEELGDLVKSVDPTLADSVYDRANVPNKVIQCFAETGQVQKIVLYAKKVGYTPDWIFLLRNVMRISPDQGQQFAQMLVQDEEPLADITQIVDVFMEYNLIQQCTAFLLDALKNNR
Described as above. As to conditions: both partners purified.

Procedure for Aurora‐A R151A: The contributions of the site 1 residues to the interaction were quantified using fluorescence polarization spectroscopy (FP) with a set of fluorescein (FAM)‐labelled peptides.
Binding assays were performed in triplicate. FP signal was fit to a one‐site total binding model in Prism 6 (GraphPad). Results are reported as K d ± SE.

On to `CC(C)C[C@H](NC(=O)[C@@H](NC(=O)[C@H](CCC(=O)O)NC(=O)[C@H](C)NC(=O)[C@@H]1CCCN1C(=O)[C@H](CC(=O)O)NC(=O)[C@H](CCCNC(=N)N)NC(=O)[C@H](Cc1ccccc1)NC(=O)[C@H](CO)NC(=O)[C@H](CCC(=O)O)NC(=O)[C@H](CCC(=O)O)NC(=O)c1ccc2c(c1)C(=O)OC21c2ccc(O)cc2Oc2cc(O)ccc21)C(C)C)C(=O)NCC(=O)N[C@H](C(=O)NCC(=O)N[C@@H](C)C(=O)O)[C@@H](C)O` [FAM‐TACC3 522–536], for which, on Aurora‐A R151A, the reduced affinity was determined as 40 fold.

B1: FAM‐TACC3 549–570 phosphorylated on S558 (FAM‐phospho‐TACC3^CID) (peptide, UniProt Q9Y6A5 549-570, looked up)
peptide: {FAM}-FKESALRKQ[pS]LYLKFDPLLRDS
notes: TACC3, human, aa549–570 (TACC3^CID); also called pTACC3^CID; FAM‐labelled pTACC3^CID; source: FAM‐labelled peptide (FAM‐TACC3 peptides: PPR, Cambridge; Almac, Craigavon)
Regarding B1, the Kd with CHC 1–574 R481E was more than 300 µM; with CHC 1–574 L503A/Y504A, more than 300 µM; with CHC 1–574 L480D, more than 300 µM; in the test with CHC 1–574 L476D, L480D, more than 300 µM.
